This is an account of results in publication PMC10427625, “Structural basis for negative regulation of the Escherichia coli maltose system” (Nature Communications, 2023).

One series deals with ADP. The series can be described thus: luciferase assay of protein-bound nucleotide. To be noted: parent: est. 98; read off a plot. Further details: unit not given here.
The target in the next series is ATP. Briefly: luciferase assay of protein-bound nucleotide. Further details: unit not given here. The conditions noted are these: parent: est. 0; read off a plot.
Series [1] deals with the molecule itself. Briefly: SEC; Superose 6 Increase 10/300 GL, 4 °C; MalT pre-incubated at 20 °C for 20 min in buffer I; run in buffer E with 1 mM maltotriose and 0.4 mM ATP; self-association of MalT. On the technique in general: Size exclusion chromatography separates by hydrodynamic size, large species first.

Residue numbers refer to the chain shown, from its start. Names may count otherwise.

On to “MalT (wild type), N-terminally His-tagged (from UniProt P06993) R19A”, for which the other: Nucleotide content with ADP is 28; with ATP, 7.5.

Take “MalT (wild type), N-terminally His-tagged (from UniProt P06993) K6A”: the other: Nucleotide content stood at 13 with ADP and 58 with ATP.

B1: MalT-S5L, N-terminally His-tagged (natural protein, Escherichia coli, UniProt P06993 1-901, looked up)
chain: MLIPLKLSRPVRLDHTVVRERLLAKLSGANNFRLALITSPAGYGKTTLISQWAAGKNDIGWYSLDEGDNQQERFASYLIAAVQQATNGHCAICETMAQKRQYASLTSLFAQLFIELAEWHSPLYLVIDDYHLITNPVIHESMRFFIRHQPENLTLVVLSRNLPQLGIANLRVRDQLLEIGSQQLAFTHQEAKQFFDCRLSSPIEAAESSRICDDVSGWATALQLIALSARQNTHSAHKSARRLAGINASHLSDYLVDEVLDNVDLATRHFLLKSAILRSMNDALITRVTGEENGQMRLEEIERQGLFLQRMDDTGEWFCYHPLFGNFLRQRCQWELAAELPEIHRAAAESWMAQGFPSEAIHHALAAGDALMLRDILLNHAWSLFNHSELSLLEESLKALPWDSLLENPQLVLLQAWLMQSQHRYGEVNTLLARAEHEIKDIREDTMHAEFNALRAQVAINDGNPDEAERLAKLALEELPPGWFYSRIVATSVLGEVLHCKGELTRSLALMQQTEQMARQHDVWHYALWSLIQQSEILFAQGFLQTAWETQEKAFQLINEQHLEQLPMHEFLVRIRAQLLWAWARLDEAEASARSGIEVLSSYQPQQQLQCLAMLIQCSLARGDLDNARSQLNRLENLLGNGKYHSDWISNANKVRVIYWQMTGDKAAAANWLRHTAKPEFANNHFLQGQWRNIARAQILLGEFEPAEIVLEELNENARSLRLMSDLNRNLLLLNQLYWQAGRKSDAQRVLLDALKLANRTGFISHFVIEGEAMAQQLRQLIQLNTLPELEQHRAQRILREINQHHRHKFAHFDENFVERLLNHPEVPELIRTSPLTQREWQVLGLIYSGYSNEQIAGELEVAATTIKTHIRNLYQKLGVAHRQDAVQHAQQLLKMMGYGV
notes: MalT of Escherichia coli, variant of plasmid pOM206 made by site-directed mutagenesis; source: E. coli BL21 (DE3) ΔmalT220, purified (Ni Sepharose, gel filtration)
Turning to B1, the binding result in series [1] is recorded as “binds”.

B2: MalT-S8A, N-terminally His-tagged (natural protein, Escherichia coli, UniProt P06993 1-901, looked up)
chain: B1 chain with L5S, S8A
notes: as for B1
As to B2, the binding result in series [1] was “binds”.

B3: MalT-R9S, N-terminally His-tagged (natural protein, Escherichia coli, UniProt P06993 1-901, looked up)
chain: B1 chain with L5S, R9S
notes: as for B1
With B3, the binding result in series [1] was “binds”.
